The source of these data is patent US20040018971A1 (published 2004).

Where two headings read alike, the source gives them in different places. A value given as a limit tells only on which side of the number the result lay.

In experiment [1] the target is T1, HLA-A*0301 (human).
T1 construct: also called HLA-A3
In words: inhibition of 125I-labelled probe peptide binding to purified HLA-A*0301, gel filtration; ratio to standard peptide 941.12 [..] (11 nM); the negative sign is not explained. (In general: In gel filtration, larger molecules generally elute earlier.)

Experiment [2] has as its target HLA-A*3101 (human). The experiment in a line: competition with 125I-labelled standard peptide for purified HLA; gel filtration.
The target in experiment [3] is HLA-A*0301 (human). Described as above.
For experiment [4], the target named is HLA-A*1101 (human). The experiment is described as above.
The target of experiment [5] is HLA-A*6801 (human). The description is as above.
The target in experiment [6] is HLA-A*3301 (human). The experiment is described as above.
For experiment [7], the target named is T2, HLA-DRB1*0802 (human).
T2 construct: Purified HLA molecule; also called DR8w2
The experiment in a line: inhibition of 125I probe peptide binding to purified HLA-DR, gel filtration.

For experiment [8], the target named is T3, HLA-DRB5*0101 (human).
T3 construct: Purified HLA molecule; also called DR2w2β2
Described as above.

The target of experiment [9] is T4, HLA-DRB1*0401 (human).
T4 construct: Purified HLA molecule; also called DR4w4
Described as above.

Experiment [10] concerns the target T5, HLA-DRB1*1501 (human).
T5 construct: Purified HLA molecule; also called DR2w2β1
Described as above.

In experiment [11] the target is T6, HLA-DRB1*0101 (human).
T6 construct: Purified HLA molecule; also called DR1
The description is as above.

Experiment [12] has as its target T7, HLA-DRB1*1302 (human).
T7 construct: Purified HLA molecule; also called DR6w19
The description is as above.

Experiment [13] has as its target T8, HLA-DRB1*0401 (human).
T8 construct: also called DR4w4
In words: competition with 125I probe peptide, purified HLA.

Experiment [14] has as its target T9, HLA-DRB1*0101 (human).
T9 construct: also called DR1
In words: competition with 125I probe peptide, purified HLA.

For experiment [15], the target named is T10, HLA-DRB1*1501 (human).
T10 construct: purified MHC class II molecule; also called DR2w2β1
In words: competition with 125I-labelled standard peptide, purified HLA-DR, gel filtration.

The target in experiment [16] is T11, HLA-DRB1*0401 (human).
T11 construct: purified MHC class II molecule; also called DR4w4
The description is as above.

Experiment [17] addresses T12, HLA-DRB1*0802 (human).
T12 construct: purified MHC class II molecule; also called DR8w2
Described as above.

For experiment [18], the target named is T13, HLA-DRB1*0101 (human).
T13 construct: purified MHC class II molecule; also called DR1
The description is as above.

In experiment [19] the target is T14, HLA-DRB1*1302 (human).
T14 construct: purified MHC class II molecule; also called DR6w19
The description is as above.

Experiment [20] concerns the target T15, HLA-DRB5*0101 (human).
T15 construct: purified MHC class II molecule; also called DR2w2β2
The description is as above.

Experiment [21] has as its target T16, HLA-DRB1*0301 (human).
T16 construct: also called DR3
In words: competition with 125I-labeled standard peptide, purified HLA-DR, gel filtration.

For experiment [22], the target named is T17, HLA-DR4w4 (DRB1*0401) (human).
T17 construct: purified HLA class II molecule
In words: competition binding assay, purified HLA, 125I-labelled probe peptide, gel filtration.

Experiment [23] addresses T18, HLA-DR1 (DRB1*0101) (human).
T18 construct: purified HLA class II molecule
The description is as above.

Experiment [24] has as its target T19, HLA-DR7 (DRB1*0701) (human).
T19 construct: purified HLA class II molecule
The description is as above.

The target of experiment [25] is T20, HLA-DRB1*0301 (human).
T20 construct: purified MHC class II molecule; also called DR3
In words: competition with 125I-labelled standard peptide, purified HLA-DR, gel filtration.

Experiment [26] addresses T21, HLA-A*0202 (human).
T21 construct: purified HLA class I molecule
In words: competition for purified HLA vs 125I-labelled probe peptide, gel filtration.

In experiment [27] the target is T22, HLA-A*6802 (human).
T22 construct: purified HLA class I molecule
Described as above.

In experiment [28] the target is T23, HLA-A*0206 (human).
T23 construct: purified HLA class I molecule
The experiment is described as above.

Experiment [29] concerns the target T24, HLA-A*0201 (human).
T24 construct: also called HLA-A2.1
Described as above.

In experiment [30] the target is T25, HLA-DRB1*0701 (human).
T25 construct: also called DR7
The experiment in a line: competition with 125I probe peptide, purified HLA.

Experiment [31] deals with T6, HLA-DRB1*0101. In words: inhibition of 125I probe peptide binding to purified HLA-DR, gel filtration. This is another data set of the same source.
The target in experiment [32] is T26, HLA-A*0203 (human).
T26 construct: purified HLA class I molecule
The experiment in a line: competition for purified HLA vs 125I-labelled probe peptide, gel filtration.

For experiment [33], the target named is T27, HLA-A*0201 (human).
T27 construct: the construct is not described; also called HLA-A2.1
In words: inhibition of 125I-labeled probe peptide binding to purified HLA, gel filtration; relative to standard peptide.

Experiment [34] deals with T20, HLA-DRB1*0301. The experiment in a line: competition with 125I-labelled standard peptide, purified HLA-DR, gel filtration. The source holds these as a separate data set.
Experiment [35] addresses HLA-A*0202 (purified HLA class I molecule) (human). The experiment in a line: competition with 125I-labelled standard peptide for purified HLA, gel filtration.
Experiment [36] has as its target HLA-A*0206 (purified HLA class I molecule) (human). The description is as above.
Experiment [37] deals with T28, HLA-A*0201 (purified HLA class I molecule) (human).
T28 construct: also called HLA-A2.1
Described as above.

The target in experiment [38] is HLA-A*6802 (purified HLA class I molecule) (human). Described as above.
For experiment [39], the target named is HLA-A*0203 (purified HLA class I molecule) (human). The description is as above.
Experiment [40] addresses T29, HLA-DRB1*0701 (human).
T29 construct: Purified HLA molecule; also called DR7
The experiment in a line: inhibition of 125I probe peptide binding to purified HLA-DR, gel filtration.

B1: HER2/neu peptide, position 1162, 10 amino acids (peptide)
peptide: PAGATLERPK
notes: Synthetic peptide; also called Her2/neu.1162 (10-mer)
Take B1: in experiment [1], the “relative binding ratio (IC50 of standard peptide / IC50 of test peptide)” value was -0.0002.
The IC50 is the concentration needed to halve the response being measured. The low end stands for greater potency, the high end for weaker potency. Take AVPLDSTFYR [Her2/neu.997.V2]: the IC50 in experiment [2] is 30000 nM; in [3], over 110000 nM; in [4] it was 88 nM; in experiment [5], 73 nM.
In the case of AVPLDSTFYK [Her2/neU.997.V2K10], the IC50 in experiment [2] came to 1500 nM; in experiment [3] it was 550 nM; in experiment [4], 33 nM; in experiment [5], 229 nM; in experiment [6], 22300 nM.
Consider DEAYVMAGVGSPYVS (Synthetic peptide), for which the IC50 in experiment [7] worked out at 860 nM; in [8] it was 833 nM; in experiment [9] it was 196 nM; in experiment [10] it was 3140 nM; in experiment [11], 100 nM; in experiment [12], 1750 nM.
For DEAYVMAGVGSPYVS [Her2/neu.769, listing 1 of 2 here], the half-maximal inhibitory concentration (IC50) turned out to be 196 nM in experiment [13] and 100 nM in experiment [14].
As for DEAYVMAGVGSPYVS [Her2/neu.769, listing 2 of 2 here], the IC50 in experiment [15] turned out to be 3140 nM; in [16], 196 nM; in [17], 860 nM; in [18], 100 nM; in experiment [19], 1750 nM; in experiment [20], 833 nM.

B2: HER2/neu peptide, position 1173, 10 amino acids (peptide)
peptide: LSPGKNGVVK
notes: Synthetic peptide; also called Her2/neu.1173 (10-mer)
Turning to B2, the “relative binding ratio (IC50 of standard peptide / IC50 of test peptide)” value in experiment [1] was -0.0002.

B3: HER2/neu DR supermotif exemplary peptide KGPLPTDCCHEQCAA (position 228) (peptide)
peptide: KGPLPTDCCHEQCAA
notes: synthetic 15-mer; also called Her2/neu.228
For the molecule B3, in experiment [21], the relative binding ratio is -0.0027 ratio (standard IC50 / test IC50).
Turning to QGFFCPDPAPGAGGM (also called Her2/neu.1028) [HER2/neu peptide QGFFCPDPAPGAGGM (position 1028)], the relative binding ratio in [22] was 0.023 ratio to standard peptide; in [23] it was -0.0005 ratio to standard peptide; in experiment [24], -0.0011 ratio to standard peptide.
Take YRSLLEDDDMGDLVD [Her2/neu.1005]: the half-maximal inhibitory concentration (IC50) in [25] came to 4760 nM.
Take SLSFLQDIQEVQGYV [Her2/neu.70]: in experiment [25], the IC50 stood at 5770 nM.
QMRILKETELRKVKV [Her2/neu.711] gave an IC50 in [20] of 34 nM.
On to KEILDEAYVMAGVGS [Her2/neu.765], for which the IC50 in experiment [13] was determined as 6160 nM.
In the case of YLIMVKCWMV (analog of Her2/neu.952 (10-mer)) [Her2/neu.952.L2V10], the concentration for half-maximal inhibition (IC50) was 56 nM in [26], 84 nM in experiment [27], 18 nM in [28] and 13 nM in experiment [29].
TQLFEDNYALAVLDN [Her2/neu.105]: the IC50 in [14] was 94 nM; in experiment [30], 1560 nM.
QPDVRPQPPSPREGP (Synthetic peptide) [Her2/neu.1142] had a half-maximal inhibitory concentration (IC50) in experiment [31] of 7140 nM.

B4: HER2/neu DR supermotif exemplary peptide PSGVKPDLSYMPIWK (position 601) (peptide)
peptide: PSGVKPDLSYMPIWK
notes: synthetic 15-mer; also called Her2/neu.601
B4: in [21], the relative binding ratio is -0.0027 ratio (standard IC50 / test IC50).
In [13], QGFFCPDPAPGAGGM [Her2/neu.1028] came in with a concentration for half-maximal inhibition (IC50) of 1960 nM.
For the molecule SLISAVVGV (analog of Her2/neu.653) [Her2/neu.653.L2V9], the IC50 in [26] is 10 nM; in [27], 110 nM; in experiment [32] it was 16 nM; in experiment [28], 20 nM; in experiment [29] it was 7.1 nM.
As for QPPICTIDVYMIMVK, the IC50 in experiment [30] was 250 nM.
For the molecule YVLIAHNQV (Synthetic peptide) [HER2/neu peptide, position 83, 9 amino acids], the relative binding ratio in [33] is 0.0005 ratio (IC50 of standard peptide / IC50 of test peptide).
For the molecule ARLLDIDETEYHADG [Her2/neu.867], the IC50 in [34] and in experiment [25] was 968 nM in each case.
LVKSPNHVR [Her2/neu.852.R9]: the IC50 in [2] turned out to be 198 nM; in [3], 7860 nM; in experiment [5], 50 nM; in [6], 107 nM.

B5: HER2/neu peptide, position 799, 9 amino acids (peptide)
peptide: QLMPYGCLL
notes: Synthetic peptide; also called Her2/neu.799
For the molecule B5, the “relative binding ratio (IC50 of standard peptide / IC50 of test peptide)” value in [35] worked out at 0.0044 ratio; in experiment [36], 0.0052 ratio; in [37] it was 0.023 ratio; in experiment [38], 0.0031 ratio; in experiment [39], 0.088 ratio.
For the molecule QPPICTIDVYMIMVK (Synthetic peptide), in experiment [40], the IC50 is 250 nM.
On to KVPIKWMALESILRR (Synthetic peptide) [Her2/neu.883], for which the half-maximal inhibitory concentration (IC50) in experiment [10] was 3.4 nM; in [11], 2.3 nM.
As to YVSRLLGICL (Synthetic peptide) [HER2/neu peptide, position 781, 10 amino acids], the relative binding ratio in experiment [33] was 0.0004 ratio (IC50 of standard peptide / IC50 of test peptide).
